Laboratory results as given in paper PMC12416549 (2024).
Substitutions are numbered along the chain they refer to. In names and notes the source's numbering stands.

Target: T1, TNFR1 (Homo sapiens, UniProt P19438)
T1 chain: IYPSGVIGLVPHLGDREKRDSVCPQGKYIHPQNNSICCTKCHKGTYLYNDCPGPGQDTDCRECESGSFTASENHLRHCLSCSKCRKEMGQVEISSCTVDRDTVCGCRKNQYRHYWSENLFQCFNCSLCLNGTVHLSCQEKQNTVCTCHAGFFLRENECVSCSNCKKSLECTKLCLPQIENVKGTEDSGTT
Assay: yeast display SC50

B1: A87K (designed binder)
chain: MTLQELLREEALRRAEAEAFRYALELLAEKFPEQKEYLLDLAEEIESQIRSLSGVDVEDVRKFLDKEWAWVKELLAEHPAELAEVEKARAARLAELRAEVEAKVAA
**Q.** With B1 as the binder, how does the “apparent Kd (screen)” value read?
**A.** 0.49 nM

B2: A106Y (designed binder)
chain: B1 chain with K87A, A106Y
**Q.** Which “apparent Kd (screen)” value does the source give for B2 here?
**A.** 0.79 nM

B3: E10S (designed binder)
chain: B1 chain with E10S, K87A
**Q.** For B3, which “apparent Kd (screen)” value is on record?
**A.** 2.25 nM

B4: R8Q (designed binder)
chain: B1 chain with R8Q, K87A
**Q.** Which “apparent Kd (screen)” value does the source give for B4 here?
**A.** 0.653 nM

B5: P32A (designed binder)
chain: B1 chain with P32A, K87A
**Q.** For B5, which “apparent Kd (screen)” value is on record?
**A.** 0.653 nM

B6: Q48S (designed binder)
chain: B1 chain with Q48S, K87A
**Q.** For B6, which “apparent Kd (screen)” value is on record?
**A.** 0.593 nM

B7: R61F (designed binder)
chain: B1 chain with R61F, K87A
**Q.** Which “apparent Kd (screen)” value does the source give for B7 here?
**A.** 1.05 nM

B8: V55Y (designed binder)
chain: B1 chain with V55Y, K87A
**Q.** With B8 as the binder, how does the “apparent Kd (screen)” value read?
**A.** 0.956 nM

B9: E25A (designed binder)
chain: B1 chain with E25A, K87A
**Q.** With B9 as the binder, how does the “apparent Kd (screen)” value read?
**A.** 0.405 nM

B10: L74N (designed binder)
chain: B1 chain with L74N, K87A
**Q.** How did the “apparent Kd (screen)” value turn out when B10 was run?
**A.** 1.27 nM

B11: L74C (designed binder)
chain: B1 chain with L74C, K87A
**Q.** How did the “apparent Kd (screen)” value turn out when B11 was run?
**A.** 1.4 nM

B12: G54P (designed binder)
chain: B1 chain with G54P, K87A
**Q.** How did the “apparent Kd (screen)” value turn out when B12 was run?
**A.** 12.5 nM

B13: V57A (designed binder)
chain: B1 chain with V57A, K87A
**Q.** For B13, which “apparent Kd (screen)” value is on record?
**A.** 0.49 nM

B14: E44A (designed binder)
chain: B1 chain with E44A, K87A
**Q.** For B14, which “apparent Kd (screen)” value is on record?
**A.** 7.78 nM

B15: L39R (designed binder)
chain: B1 chain with L39R, K87A
**Q.** With B15 as the binder, how does the “apparent Kd (screen)” value read?
**A.** 1.4 nM

B16: T2Q (designed binder)
chain: B1 chain with T2Q, K87A
**Q.** Which “apparent Kd (screen)” value does the source give for B16 here?
**A.** 1.27 nM

B17: E67H (designed binder)
chain: B1 chain with E67H, K87A
**Q.** With B17 as the binder, how does the “apparent Kd (screen)” value read?
**A.** 0.335 nM

B18: K103W (designed binder)
chain: B1 chain with K87A, K103W
**Q.** With B18 as the binder, how does the “apparent Kd (screen)” value read?
**A.** 0.718 nM

B19: S53I (designed binder)
chain: B1 chain with S53I, K87A
**Q.** How did the “apparent Kd (screen)” value turn out when B19 was run?
**A.** 2.25 nM

B20: K103F (designed binder)
chain: B1 chain with K87A, K103F
**Q.** With B20 as the binder, how does the “apparent Kd (screen)” value read?
**A.** 0.869 nM

B21: L24P (designed binder)
chain: B1 chain with L24P, K87A
**Q.** B21 was tested. Which “apparent Kd (screen)” value did it give?
**A.** 26.9 nM

B22: D65A (designed binder)
chain: B1 chain with D65A, K87A
**Q.** How did the “apparent Kd (screen)” value turn out when B22 was run?
**A.** 0.653 nM

B23: F63M (designed binder)
chain: B1 chain with F63M, K87A
**Q.** Which “apparent Kd (screen)” value does the source give for B23 here?
**A.** 1.16 nM

B24: A69E (designed binder)
chain: B1 chain with A69E, K87A
**Q.** For B24, which “apparent Kd (screen)” value is on record?
**A.** 0.956 nM

B25: R89E (designed binder)
chain: B1 chain with K87A, R89E
**Q.** How did the “apparent Kd (screen)” value turn out when B25 was run?
**A.** 0.956 nM

B26: H78P (designed binder)
chain: B1 chain with H78P, K87A
**Q.** Which “apparent Kd (screen)” value does the source give for B26 here?
**A.** 1.69 nM

B27: L27H (designed binder)
chain: B1 chain with L27H, K87A
**Q.** With B27 as the binder, how does the “apparent Kd (screen)” value read?
**A.** 0.869 nM

B28: L74D (designed binder)
chain: B1 chain with L74D, K87A
**Q.** For B28, which “apparent Kd (screen)” value is on record?
**A.** 3 nM

B29: L52A (designed binder)
chain: B1 chain with L52A, K87A
**Q.** For B29, which “apparent Kd (screen)” value is on record?
**A.** 0.446 nM

B30: H78S (designed binder)
chain: B1 chain with H78S, K87A
**Q.** For B30, which “apparent Kd (screen)” value is on record?
**A.** 0.79 nM

B31: E44N (designed binder)
chain: B1 chain with E44N, K87A
**Q.** B31 was tested. Which “apparent Kd (screen)” value did it give?
**A.** 24.4 nM

B32: D59E (designed binder)
chain: B1 chain with D59E, K87A
**Q.** Which “apparent Kd (screen)” value does the source give for B32 here?
**A.** 0.539 nM

B33: L64G (designed binder)
chain: B1 chain with L64G, K87A
**Q.** B33 was tested. Which “apparent Kd (screen)” value did it give?
**A.** 1.69 nM

B34: V100I (designed binder)
chain: B1 chain with K87A, V100I
**Q.** With B34 as the binder, how does the “apparent Kd (screen)” value read?
**A.** 0.653 nM

B35: A94Y (designed binder)
chain: B1 chain with K87A, A94Y
**Q.** For B35, which “apparent Kd (screen)” value is on record?
**A.** 0.593 nM

B36: W70C (designed binder)
chain: B1 chain with W70C, K87A
**Q.** For B36, which “apparent Kd (screen)” value is on record?
**A.** 2.73 nM

B37: R89N (designed binder)
chain: B1 chain with K87A, R89N
**Q.** With B37 as the binder, how does the “apparent Kd (screen)” value read?
**A.** 1.05 nM

B38: A80I (designed binder)
chain: B1 chain with A80I, K87A
**Q.** Which “apparent Kd (screen)” value does the source give for B38 here?
**A.** 0.593 nM

B39: T2D (designed binder)
chain: B1 chain with T2D, K87A
**Q.** For B39, which “apparent Kd (screen)” value is on record?
**A.** 1.54 nM

B40: S53Y (designed binder)
chain: B1 chain with S53Y, K87A
**Q.** How did the “apparent Kd (screen)” value turn out when B40 was run?
**A.** 6.43 nM

B41: E36N (designed binder)
chain: B1 chain with E36N, K87A
**Q.** Which “apparent Kd (screen)” value does the source give for B41 here?
**A.** 1.27 nM

B42: L27N (designed binder)
chain: B1 chain with L27N, K87A
**Q.** How did the “apparent Kd (screen)” value turn out when B42 was run?
**A.** 0.49 nM

B43: A42Q (designed binder)
chain: B1 chain with A42Q, K87A
**Q.** Which “apparent Kd (screen)” value does the source give for B43 here?
**A.** 2.05 nM

B44: R89Q (designed binder)
chain: B1 chain with K87A, R89Q
**Q.** How did the “apparent Kd (screen)” value turn out when B44 was run?
**A.** 0.593 nM

B45: V60Y (designed binder)
chain: B1 chain with V60Y, K87A
**Q.** How did the “apparent Kd (screen)” value turn out when B45 was run?
**A.** 0.539 nM

B46: S53H (designed binder)
chain: B1 chain with S53H, K87A
**Q.** B46 was tested. Which “apparent Kd (screen)” value did it give?
**A.** 0.653 nM

B47: L24F (designed binder)
chain: B1 chain with L24F, K87A
**Q.** For B47, which “apparent Kd (screen)” value is on record?
**A.** 0.653 nM

B48: W68K (designed binder)
chain: B1 chain with W68K, K87A
**Q.** For B48, which “apparent Kd (screen)” value is on record?
**A.** 12.5 nM

B49: E67V (designed binder)
chain: B1 chain with E67V, K87A
**Q.** B49 was tested. Which “apparent Kd (screen)” value did it give?
**A.** 20.2 nM

B50: E16P (designed binder)
chain: B1 chain with E16P, K87A
**Q.** B50 was tested. Which “apparent Kd (screen)” value did it give?
**A.** 9.41 nM

B51: L75Q (designed binder)
chain: B1 chain with L75Q, K87A
**Q.** For B51, which “apparent Kd (screen)” value is on record?
**A.** 0.79 nM

B52: E16Y (designed binder)
chain: B1 chain with E16Y, K87A
**Q.** How did the “apparent Kd (screen)” value turn out when B52 was run?
**A.** 0.446 nM

B53: A69D (designed binder)
chain: B1 chain with A69D, K87A
**Q.** With B53 as the binder, how does the “apparent Kd (screen)” value read?
**A.** 0.653 nM

B54: L75K (designed binder)
chain: B1 chain with L75K, K87A
**Q.** B54 was tested. Which “apparent Kd (screen)” value did it give?
**A.** 0.593 nM

B55: A94V (designed binder)
chain: B1 chain with K87A, A94V
**Q.** B55 was tested. Which “apparent Kd (screen)” value did it give?
**A.** 0.539 nM

B56: L74P (designed binder)
chain: B1 chain with L74P, K87A
**Q.** For B56, which “apparent Kd (screen)” value is on record?
**A.** 13.8 nM

B57: E84F (designed binder)
chain: B1 chain with E84F, K87A
**Q.** How did the “apparent Kd (screen)” value turn out when B57 was run?
**A.** 0.593 nM

B58: V71I (designed binder)
chain: B1 chain with V71I, K87A
**Q.** Which “apparent Kd (screen)” value does the source give for B58 here?
**A.** 0.539 nM

B59: R8C (designed binder)
chain: B1 chain with R8C, K87A
**Q.** B59 was tested. Which “apparent Kd (screen)” value did it give?
**A.** 0.593 nM
